Experimental findings from the Immune Epitope Database (IEDB) are described below.

Targets include HLA-B*08:01; HLA-A*01:01; HLA-A*23:01; HLA-A*24:02; HLA-A*26:01; HLA-A*29:02; HLA-A*30:02; HLA-B*07:02.
Common to all, as to assay: IEDB peptide-MHC binding, purified MHC/competitive/radioactivity; filed as Kd, often an IC50 or EC50 that approximates it; ≥ and ≤ were set here for values at or beyond the usual limits of such assays
A further assay addresses HLA-A*02:02. The note with it: source organism: Vaccinia virus WR.
The next assay has as its target HLA-A*02:03. To be noted: source organism: Vaccinia virus WR.
In a further assay the target is HLA-A*02:06. The note with it: source organism: Vaccinia virus WR.
A further assay addresses HLA-B*53:01. To be noted: source organism: Dengue virus 2 Jamaica/1409/1983.
[1] abbreviates: source organism: Dengue virus 1 Brazil/97-11/1997.
The mark [2] stands for this setting: source organism: SARS coronavirus Tor2.
Where [3] appears, read: source organism: Vaccinia virus WR.
Setting [4] is: source organism: Dengue virus 3 Martinique/1243/1999.
Where [5] appears, read: source organism: Dengue virus 2 Jamaica/1409/1983.
Where [6] appears, read: source organism: Mammarenavirus brazilense.
The mark [7] stands for this setting: source organism: Dengue virus 4 Philippines/H241/1956.
The mark [8] stands for this setting: source organism: Mammarenavirus guanaritoense.
Setting [9] is: source organism: Mammarenavirus machupoense.

With KKKQRSGVL, the Kd (commonly the free concentration of one partner at which half of the binding sites on the other are occupied at equilibrium, for simple one-to-one binding) with HLA-B*08:01 (setting [1]) was found to be 2290 nM.

With NVSLVKPTVY, the Kd was 12400 nM with HLA-A*01:01 (setting [2]); at least 70000 nM with HLA-A*23:01 (setting [2]); at least 70300 nM in the assay with HLA-A*24:02 (setting [2]); 16300 nM in the assay with HLA-A*26:01 (setting [2]); 2410 nM with HLA-A*29:02 (setting [2]); 1170 nM with HLA-A*30:02 (setting [2]).

For DQLSKFRTL, the Kd with HLA-B*08:01 (setting [3]) stood at 7.4 nM.

As for IPLQWIASA, the dissociation constant (Kd) in the assay with HLA-B*07:02 (setting [4]) stood at 88.4 nM.

Take DYSVLYNSTF: the dissociation constant (Kd) is at least 70400 nM with HLA-A*01:01 (setting [2]); 159 nM in the assay with HLA-A*23:01 (setting [2]); 24.2 nM in the assay with HLA-A*24:02 (setting [2]); 4220 nM with HLA-A*26:01 (setting [2]); 2540 nM with HLA-A*29:02 (setting [2]); at least 60400 nM with HLA-A*30:02 (setting [2]).

With VSSPDAVTTY, the equilibrium dissociation constant (Kd) with HLA-A*01:01 (setting [2]) is 223 nM; in the assay with HLA-A*23:01 (setting [2]), at least 70000 nM; in the assay with HLA-A*24:02 (setting [2]), at least 70300 nM; with HLA-A*26:01 (setting [2]), 3700 nM; in the assay with HLA-A*29:02 (setting [2]), 1840 nM; with HLA-A*30:02 (setting [2]), 11.3 nM.

With LYLYALIYF, the dissociation constant Kd in the assay with HLA-A*01:01 (setting [2]) was 5160 nM; in the assay with HLA-A*23:01 (setting [2]) it was 0.0785 nM; in the assay with HLA-A*24:02 (setting [2]), 1.01 nM; with HLA-A*26:01 (setting [2]), 12600 nM; with HLA-A*29:02 (setting [2]), 0.143 nM; with HLA-A*30:02 (setting [2]), at least 81100 nM.

Take PRRCMKPVIL: in the assay with HLA-B*08:01 (setting [5]), the dissociation constant Kd stood at 2470 nM.

As to AYSFLPGVY, the dissociation constant (Kd) with HLA-A*01:01 (setting [2]) came to 6520 nM; with HLA-A*23:01 (setting [2]), 7400 nM; with HLA-A*24:02 (setting [2]), 30.8 nM; with HLA-A*26:01 (setting [2]), 6390 nM; with HLA-A*29:02 (setting [2]), 4.52 nM; in the assay with HLA-A*30:02 (setting [2]), 0.267 nM.

As to MLIPKSYAG, the Kd with HLA-B*08:01 (source organism: Dengue virus 4 Dominica/814669/1981) was 114 nM.

Regarding SPLLLTSSQQ, the dissociation constant Kd in the assay with HLA-B*07:02 (setting [5]) amounted to 1220 nM.

With AFRDVLVVL, the dissociation constant Kd with HLA-A*01:01 (setting [2]) worked out at 15900 nM; with HLA-A*23:01 (setting [2]), 1970 nM; with HLA-A*24:02 (setting [2]) it was 6820 nM; in the assay with HLA-A*26:01 (setting [2]) it was 13000 nM; with HLA-A*29:02 (setting [2]), 14000 nM; in the assay with HLA-A*30:02 (setting [2]), 9830 nM.

As for DYDCVSFCY, the Kd with HLA-A*01:01 (setting [2]) was at least 58000 nM; with HLA-A*23:01 (setting [2]), at least 20900 nM; with HLA-A*24:02 (setting [2]) it was at least 20200 nM; with HLA-A*26:01 (setting [2]), 17600 nM; with HLA-A*29:02 (setting [2]), 145 nM; in the assay with HLA-A*30:02 (setting [2]), 1400 nM.

With LLLMRTSWA, in the assay with HLA-B*08:01 (setting [4]), the Kd was 10.3 nM.

Regarding NPLTLTAAVL, in the assay with HLA-B*08:01 (setting [1]), the Kd was 305 nM.

IPDVIELAY: the Kd with HLA-A*01:01 (setting [6]) is 5510 nM; with HLA-A*23:01 (setting [6]), 18600 nM; in the assay with HLA-A*24:02 (setting [6]) it was at least 33500 nM; in the assay with HLA-A*26:01 (setting [6]), at least 38300 nM; with HLA-A*29:02 (setting [6]), 3150 nM; with HLA-A*30:02 (setting [6]), 2760 nM.

For SPILSITISE, in the assay with HLA-B*07:02 (setting [5]), the Kd came out at 2150 nM.

As for EKWKRQLNSL, the Kd with HLA-B*08:01 (setting [7]) was determined as 251 nM.

As to IMRNLTNLL, the dissociation constant Kd with HLA-A*23:01 (setting [8]) is 6150 nM; with HLA-A*24:02 (setting [8]), at least 33100 nM; in the assay with HLA-A*29:02 (setting [8]) it was 305 nM.

IILWFFNAM: the dissociation constant (Kd) in the assay with HLA-B*08:01 (setting [3]) is 5230 nM.

On to SGALDTTSY, for which the Kd in the assay with HLA-A*01:01 (setting [2]) was at least 80600 nM; with HLA-A*23:01 (setting [2]), at least 77800 nM; in the assay with HLA-A*24:02 (setting [2]) it was at least 77600 nM; with HLA-A*26:01 (setting [2]) it was at least 55500 nM; in the assay with HLA-A*29:02 (setting [2]), 168 nM; with HLA-A*30:02 (setting [2]), 20.9 nM.

In the case of FLGEDGCWY, in the assay with HLA-A*01:01 (setting [7]), the Kd is 277 nM.

Consider AGPFSQHNY, for which, in the assay with HLA-A*30:02 (setting [7]), the Kd amounted to 472 nM.

Take EALYYVHSL: the Kd was found to be 14200 nM in the assay with HLA-A*02:02, 5770 nM in the assay with HLA-A*02:03, 14800 nM in the assay with HLA-A*02:06 and 2.11 nM with HLA-B*08:01 (setting [3]).

As to AYEHKNRSRL, the dissociation constant (Kd) is 10200 nM with HLA-A*23:01 (setting [8]), at least 26500 nM with HLA-A*24:02 (setting [8]) and at least 20900 nM with HLA-A*29:02 (setting [8]).

In the case of ELCEDTMTY, in the assay with HLA-A*26:01 (setting [1]), the dissociation constant (Kd) was 1740 nM.

Turning to FVEGVSGGSW, the equilibrium dissociation constant (Kd) with HLA-A*26:01 (setting [5]) came out at 14200 nM; in the assay with HLA-B*53:01 it was 48.8 nM.

As for KVDAIDGEY, the dissociation constant (Kd) was determined as 953 nM with HLA-A*01:01 (setting [5]) and 171 nM in the assay with HLA-A*30:02 (setting [5]).

In the case of QCGDPSSFDY, the equilibrium dissociation constant (Kd) is 1400 nM with HLA-A*01:01 (setting [9]); at least 28800 nM with HLA-A*23:01 (setting [9]); at least 70300 nM in the assay with HLA-A*24:02 (setting [9]); at least 69700 nM with HLA-A*26:01 (setting [9]); 5830 nM in the assay with HLA-A*29:02 (setting [9]); 3310 nM with HLA-A*30:02 (setting [9]).
